Test results reported in patent US20160046728.

Molecular target: T1, Ir-CPI (Ixodes ricinus Contact Phase Inhibitor), recombinant
T1 chain: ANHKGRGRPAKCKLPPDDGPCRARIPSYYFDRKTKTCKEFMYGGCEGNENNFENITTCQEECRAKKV

| Protein | amidolytic activity on chromogenic substrate (protease:Ir-CPI 1:5) | activation of factor XI into factor XIa by factor XIIa (reconstituted system, purified factors, chromogenic substrate) | activation of prekallikrein into kallikrein by factor XIIa (reconstituted system, purified factors, chromogenic substrate) |
| --- | --- | --- | --- |
| factor VIIa (protein) ANAFLEELRPGSLERECKEEQCSFEEAREIFKDAERTKLFWISYSDGDQCASSPCQNGGSCKDQLQSYICFCLPAFEGRNCETHKDDQLICVNENGGCEQYCSDHTGTKRSCRCHEGYSLLADGVSCTPTVEYPCGKIPILEKRNASKPQGRIVGGKVCPKGECPWQVLLLVNGAQLCGGTLINTIWVVSAAHCFDKIKNWRNLIAVLGEHDLSEHDGDEQSRRVAQVIIPSTYVPGTTNHDIALLRLHQPVVLTDHVVPLCLPERTFSERTLAFVRFSLVSGWGQLLDRGATALELMVLNVPRLMTQDCLQQSRKVGDSPNITEYMFCAGYSDGSKDSCKGDSGGPHATHYRGTWYLTGIVSWGQGCATVGHFGVYTRVSQYIEWLQKLMRSEPRPGVLLRAPFP | The results obtained did not show any effect of Ir-CPI protein on the amidolytic activity of these factors |  |  |
| factor XIIa (protein) IPPWEAPKEHKYKAEEHTVVLTVTGEPCHFPFQYHRQLYHKCTHKGRPGPQPWCATTPNFDQDQRWGYCLEPKKVKDHCSKHSPCQKGGTCVNMPSGPHCLCPQHLTGNHCQKEKCFEPQLLRFFHKNEIWYRTEQAAVARCQCKGPDAHCQRLASQACRTNPCLHGGRCLEVEGHRLCHCPVGYTGAFCDVDTKASCYDGRGLSYRGLARTTLSGAPCQPWASEATYRNVTAEQARNWGLGGHAFCRNPDNDIRPWCFVLNRDRLSWEYCDLAQCQTPTQAAPPTPVSPRLHVPLMPAQPAPPKPQPTTRTPPQSQTPGALPAKREQPPSLTRNGPLSCGQRLRKSLSSMTRVVGGLVALRGAHPYIAALYWGHSFCAGSLIAPCWVLTAAHCLQDRPAPEDLTVVLGQERRNHSCEPCQTLAVRSYRLHEAFSPVSYQHDLALLRLQEDADGSCALLSPYVQPVCLPSGAARPSETTLCQVAGWGHQFEGAEEYASFLQEAQVPFLSLERCSAPDVHGSSILPGMLCAGFLEGGTDACQGDSGGPLVCEDQAAERRLTLQGIISWGSGCGDRNKPGVYTDVAYYLAWIREHTVS | The results obtained did not show any effect of Ir-CPI protein on the amidolytic activity of these factors | Ir-CPI inhibits ... the activation of factor XI into factor XIa by factor XIIa | Ir-CPI inhibits the activation of prekallikrein into kallikrein by factor XIIa |
| t-PA (protein) SYQVICRDEKTQMIYQQHQSWLRPVLRSNRVEYCWCNSGRAQCHSVPVKSCSEPRCFNGGTCQQALYFSDFVCQCPEGFAGKCCEIDTRATCYEDQGISYRGTWSTAESGAECTNWNSSALAQKPYSGRRPDAIRLGLGNHNYCRNPDRDSKPWCYVFKAGKYSSEFCSTPACSEGNSDCYFGNGSAYRGTHSLTESGASCLPWNSMILIGKVYTAQNPSAQALGLGKHNYCRNPDGDAKPWCHVLKNRRLTWEYCDVPSCSTCGLRQYSQPQFRIKGGLFADIASHPWQAAIFAKHRRSPGERFLCGGILISSCWILSAAHCFQERFPPHHLTVILGRTYRVVPGEEEQKFEVEKYIVHKEFDDDTYDNDIALLQLKSDSSRCAQESSVVRTVCLPPADLQLPDWTECELSGYGKHEALSPFYSERLKEAHVRLYPSSRCTSQHLLNRTVTDNMLCAGDTRSGGPQANLHDACQGDSGGPLVCLNDGRMTLVGIISWGLGCGQKDVPGVYTKVTNYLDWIRDNMRP | The results obtained did not show any effect of Ir-CPI protein on the amidolytic activity of these factors |  |  |
| factor Xa (protein) chain 1: ANSFLEEMKKGHLERECMEETCSYEEAREVFEDSDKTNEFWNKYKDGDQCETSPCQNQGKCKDGLGEYTCTCLEGFEGKNCELFTRKLCSLDNGDCDQFCHEEQNSVVCSCARGYTLADNGKACIPTGPYPCGKQTLER chain 2: IVGGQECKDGECPWQALLINEENEGFCGGTILSEFYILTAAHCLYQAKRFKVRVGDRNTEQEEGGEAVHEVEVVIKHNRFTKETYDFDIAVLRLKTPITFRMNVAPACLPERDWAESTLMTQKTGIVSGFGRTHEKGRQSTRLKMLEVPYVDRNSCKLSSSFIITQNMFCAGYDTKQEDACQGDSGGPHVTRFKDTYFVTGIVSWGEGCARKGKYGIYTKVTAFLKWIDRSMKTRGLPKAKSHAPEVITSSPLK | The results obtained did not show any effect of Ir-CPI protein on the amidolytic activity of these factors |  |  |
| plasmin (protein) KVYLSECKTGNGKNYRGTMSKTKNGITCQKWSSTSPHRPRFSPATHPSEGLEENYCRNPDNDPQGPWCYTTDPEKRYDYCDILECEEECMHCSGENYDGKISKTMSGLECQAWDSQSPHAHGYIPSKFPNKNLKKNYCRNPDRELRPWCFTTDPNKRWELCDIPRCTTPPPSSGPTYQCLKGTGENYRGNVAVTVSGHTCQHWSAQTPHTHNRTPENFPCKNLDENYCRNPDGKRAPWCHTTNSQVRWEYCKIPSCDSSPVSTEQLAPTAPPELTPVVQDCYHGDGQSYRGTSSTTTTGKKCQSWSSMTPHRHQKTPENYPNAGLTMNYCRNPDADKGPWCFTTDPSVRWEYCNLKKCSGTEASVVAPPPVVLLPDVETPSEEDCMFGNGKGYRGKRATTVTGTPCQDWAAQEPHRHSIFTPETNPRAGLEKNYCRNPDGDVGGPWCYTTNPRKLYDYCDVPQCAAPSFDCGKPQVEPKKCPGRVVGGCVAHPHSWPWQVSLRTRFGMHFCGGTLISPEWVLTAAHCLEKSPRPSSYKVILGAHQEVNLEPHVQEIEVSRLFLEPTRKDIALLKLSSPAVITDKVIPACLPSPNYVVADRTECFITGWGETQGTFGAGLLKEAQLPVIENKVCNRYEFLNGRVQSTELCAGHLAGGTDSCQGDSGGPLVCFEKDKYILQGVTSWGLGCARPNKPGVYVRVSRFVTWIEGVMRNN | The results obtained did not show any effect of Ir-CPI protein on the amidolytic activity of these factors |  |  |
